Among the data in the RNAGym collection of RNA variant scans (doi:10.7554/elife.90254) are self-cleavage values, retold here.

First the molecules themselves.
B1: LINE1-mini (parent)
chain: GGCAGAGCUCAACACAGCGUGGCAAAGUGGCUGUGGCUAGACUGCC

In the data set the parent is B1. The data set can be described thus: self-cleavage, relative activity (ratio to wild type); higher = more cleavage; in vitro, sequencing; the parent is a self-cleaving ribozyme.
As to GGCAGAACACAACACAGCGUGGCAAAGUGGCUGUGGCUAGACUGCC [G7A U9A], the self-cleavage was 0.3. Turning to GGCAGAACUUAACACAGCGUGGCAAAGUGGCUGUGGCUAGACUGCC [G7A C10U], the self-cleavage worked out at 0.04. The figure for GGCAGAACUCAACACAGCGUGGCAAAGUGGCUGUGGAUAGACUGCC [G7A C37A] is 0.18; for GGCAGAACUCAACACAGCGUGGCAAAGUGGCUGUGGUUAGACUGCC [G7A C37U] it is 0.11. As for GGCAGAACUCAACACAGCGUGGCAAAGUGGCUGUGGGUAGACUGCC [G7A C37G], the self-cleavage worked out at 0.05. As for GGCAGAACUCAACACAGCGUGGCAAAGCGGCUGUGGCUAGACUGCC [G7A U28C], the self-cleavage was 0.11. GGCAGAACUCAACACAGCGUGGCAAAGGGGCUGUGGCUAGACUGCC [G7A U28G]: the self-cleavage stood at 0.16. As for GGCAGAACUCAACACAGCGUGGCAAAGAGGCUGUGGCUAGACUGCC [G7A U28A], the self-cleavage was found to be 0.16.

In the case of GGCAGAACUCAACACAGCGUGGCAAAGUGGCUGUGGCUAGAGUGCC [G7A C42G], the self-cleavage was 0.05. As for GGCAGAACUCAACACAGCGUGGCAAAGUGGCUGUGGCUAGAUUGCC [G7A C42U], the self-cleavage turned out to be 0.16.

For GGCAGAACUCAACACAGCGUGGCAAAGUGGCUGUGGCUAGAAUGCC [G7A C42A], the self-cleavage is 0.18. Turning to GGCAGACCUCAACACAGCGUGGCUAAGUGGCUGUGGCUAGACUGCC [G7C A24U], the self-cleavage came out at 0.19.

On to GGCAGACCUCAACACAGCGUGGCCAAGUGGCUGUGGCUAGACUGCC [G7C A24C], for which the self-cleavage was determined as 0.09. With GGCAGACCUCAACACAGCGUGGCGAAGUGGCUGUGGCUAGACUGCC [G7C A24G], the self-cleavage stood at 0.12. The figure for GGCAGACCUCAACACAGCGUGGCAAAGUGGCUGUGGCUAGCCUGCC [G7C A41C] is 0.09; for GGCAGACCUCAACACAGCGUGGCAAAGUGGCUGUGGCUAGGCUGCC [G7C A41G] it is 0.04. With GGCAGAACUCAACACAGCGUGGCAAAUUGGCUGUGGCUAGACUGCC [G7A G27U], the self-cleavage was found to be 0.16. Turning to GGCAGAACUCAACACAGCGUGGCAAAAUGGCUGUGGCUAGACUGCC [G7A G27A], the self-cleavage is 0.06. Next, GGCAGAACUCAACACAGCGUGGCAAACUGGCUGUGGCUAGACUGCC [G7A G27C]: 0.18. For the variant GGCAGAACUCAACACAGCGUAGCAAAGUGGCUGUGGCUAGACUGCC [G7A G21A], the self-cleavage was 0.34. Regarding GGCAGAACUCAACACAGCGUUGCAAAGUGGCUGUGGCUAGACUGCC [G7A G21U], the self-cleavage turned out to be 0.24. As for GGCAGAACUCAACACAGCGUCGCAAAGUGGCUGUGGCUAGACUGCC [G7A G21C], the self-cleavage is 0.12. With GGCAGAACUCAACACAGCGUGGCAAAGUGGCCGUGGCUAGACUGCC [G7A U32C], the self-cleavage was determined as 0.17. With GGCAGAACUCAACACAGCGUGGCAAAGUGGCAGUGGCUAGACUGCC [G7A U32A], the self-cleavage is 0.13. As to GGCAGAACUCAACACAGCGUGGCAAAGUGGCGGUGGCUAGACUGCC [G7A U32G], the self-cleavage is 0.11. For the variant GGCAGAACUCAACACAGCGUGGCAAAGUGGCUGUGACUAGACUGCC [G7A G36A], the self-cleavage came out at 0.43. For the variant GGCAGAACUCAACACAGCGUGGCAAAGUGGCUGUGCCUAGACUGCC [G7A G36C], the self-cleavage came to 0.27. Next, GGCAGAACUCAACACAGCGUGGCAAAGUGGCUGUGUCUAGACUGCC [G7A G36U]: 0.12; GGCAGAACUCAACACAGCGUGGCAAAGUGGCUGUGGCUAGACUGCU [G7A C46U]: 0.32; GGCAGAACUCAACACAGCGUGGCAAAGUGGCUGUGGCUAGACUGCA [G7A C46A]: 0.23. As for GGCAGAACUCAACACAGCGUGGCAAAGUGGCUGUGGCUAGACUGCG [G7A C46G], the self-cleavage was 0.36. Next, GGCAGAACUCAACACAGCGUGGCAAAGUGGCUGUGGCUAGACUUCC [G7A G44U]: 0.18; GGCAGAACUCAACACAGCGUGGCAAAGUGGCUGUGGCUAGACUCCC [G7A G44C]: 0.28. In the case of GGCAGAACUCAACACAGCGUGGCAAAGUGGCUGUGGCUAGACUACC [G7A G44A], the self-cleavage was 0.19. In the case of GGCAGAACUCAACACACCGUGGCAAAGUGGCUGUGGCUAGACUGCC [G7A G17C], the self-cleavage was found to be 0.18. For GGCAGAACUCAACACAACGUGGCAAAGUGGCUGUGGCUAGACUGCC [G7A G17A], the self-cleavage turned out to be 0.16.

Turning to GGCAGAACUCAACACAUCGUGGCAAAGUGGCUGUGGCUAGACUGCC [G7A G17U], the self-cleavage was found to be 0.12.

Take GGCAGAACUCAACACAGCGUGGGAAAGUGGCUGUGGCUAGACUGCC [G7A C23G]: the self-cleavage stood at 0.21. As to GGCAGAACUCAACACAGCGUGGAAAAGUGGCUGUGGCUAGACUGCC [G7A C23A], the self-cleavage turned out to be 0.15. For GGCAGAACUCAACACAGCGUGGUAAAGUGGCUGUGGCUAGACUGCC [G7A C23U], the self-cleavage worked out at 0.11. On to GGCAGACCUCACCACAGCGUGGCAAAGUGGCUGUGGCUAGACUGCC [G7C A12C], for which the self-cleavage worked out at 0.03. Next, GGCAGACCUCAGCACAGCGUGGCAAAGUGGCUGUGGCUAGACUGCC [G7C A12G]: 0.06; GGCAGACCUCAUCACAGCGUGGCAAAGUGGCUGUGGCUAGACUGCC [G7C A12U]: 0.07. As to GGCAGAACUCAACACAGCGUGGCAAAGUGGCUGCGGCUAGACUGCC [G7A U34C], the self-cleavage came out at 0.09. With GGCAGAACUCAACACAGCGUGGCAAAGUGGCUGAGGCUAGACUGCC [G7A U34A], the self-cleavage worked out at 0.1. GGCAGAACUCAACACAGCGUGGCAAAGUGGCUGGGGCUAGACUGCC [G7A U34G]: the self-cleavage stood at 0.14. With GGCAGACCUCAACACAGCGUGGCAAAGUGGCUGUGGCUAGACUGCC [G7C], the self-cleavage turned out to be 0.13. Consider GGCAGACCUCAACACUGCGUGGCAAAGUGGCUGUGGCUAGACUGCC [G7C A16U], for which the self-cleavage turned out to be 0.3. Next, GGCAGACCUCAACACCGCGUGGCAAAGUGGCUGUGGCUAGACUGCC [G7C A16C]: 0.11; GGCAGACCUCAACACGGCGUGGCAAAGUGGCUGUGGCUAGACUGCC [G7C A16G]: 0.06; GGCAGAACUCAACACAGCGUGUCAAAGUGGCUGUGGCUAGACUGCC [G7A G22U]: 0.14. The figure for GGCAGAACUCAACACAGCGUGCCAAAGUGGCUGUGGCUAGACUGCC [G7A G22C] is 0.13; for GGCAGAACUCAACACAGCGUGACAAAGUGGCUGUGGCUAGACUGCC [G7A G22A] it is 0.14. Turning to GGCAGAACUCAACACAGCGUGGCAAAGUGGCUGUGGCUAAACUGCC [G7A G40A], the self-cleavage is 0.19. Next, GGCAGAACUCAACACAGCGUGGCAAAGUGGCUGUGGCUACACUGCC [G7A G40C]: 0.1; GGCAGAACUCAACACAGCGUGGCAAAGUGGCUGUGGCUAUACUGCC [G7A G40U]: 0.27.
